The text below walks through data of patent EP4454706A1 (Universität Stuttgart, dated 2024).

For test [1], the target named is T1, EGFR-His fusion protein comprising the extracellular domain (aa 25 - 645) of human EGFR (human, UniProt P00533 25-645).
T1 construct: also called His-tagged extracellular domain of EGFR wt
In words: ELISA, coated EGFR-His.

Test [2] has as its target T2, human EGFR (aa 1 - 1,210), on cells (human, UniProt P00533 25-1210).
T2 construct: also called EGFR wt; NIH-3T3 + EGFR wt
In words: flow cytometry, FaDu cells. On the technique in general: In flow cytometry, cells or beads pass a laser one at a time.

The target of test [3] is T2, human EGFR (aa 1 - 1,210), on cells. The test can be described thus: cell-based or functional assay.
For test [4] the target is unchanged. In words: flow cytometry, LIM1215 cells.
For the next test, the target named is T3, CD3 on Jurkat cells (human, UniProt P07766 23-207).
T3 construct: whole, on cells; also called CD3-expressing Jurkat
The test can be described thus: flow cytometry, Jurkat cells.

Test [5] deals with T4, His-tagged extracellular domain of EGFR comprising the mutation G465R (human, UniProt P00533 25-645).
T4 construct: See m46; also called G465R (BLI antigen)
In words: BLI (Octet), Fab on FAB2G sensor, EGFR-His in solution.

Test [6] has as its target T1, EGFR-His fusion protein comprising the …. The description is as above.
Test [7] addresses T5, His-tagged extracellular domain of EGFR comprising the mutation S464L (human, UniProt P00533 25-645).
T5 construct: See m46; also called S464L (BLI antigen)
Described as above.

In test [8] the target is T6, His-tagged extracellular domain of EGFR comprising the mutation S492R (human, UniProt P00533 25-645).
T6 construct: See m46; also called S492R (BLI antigen)
The description is as above.

Test [9] has as its target T7, His-tagged extracellular domain of EGFR comprising the mutation V441D (human, UniProt P00533 25-645).
T7 construct: See m46; also called V441D (BLI antigen)
Described as above.

Test [10] has as its target T8, EGFR-moIgG2a-Fc fusion protein comprising the extracellular domain (aa 25 - 645) of human EGFR (human).
T8 construct: also called EGFR wt
In words: ELISA, coated EGFR-moIgG2a-Fc. In general terms: ELISA stands for enzyme-linked immunosorbent assay.

For test [11], the target named is T2, human EGFR (aa 1 - 1,210), on cells. The test can be described thus: flow cytometry, FaDu cells. The source holds these as a separate data set.
Test [12] shares this target. The test can be described thus: flow cytometry, DiFi cells.
The target in test [13] is T1, EGFR-His fusion protein comprising the …. In words: ELISA, coated EGFR-His. The source holds these as a separate data set.
In test [14] the target is T8, EGFR-moIgG2a-Fc fusion protein …. In words: ELISA, coated EGFR-moIgG2a-Fc. This is another data set of the same source.

Like-named read-outs stand apart in the source and are kept apart here.

B1: IgG YU250-H10 wt (parental antibody of Example 5) (antibody)
light: QSVLTQPPSVSGAPGQRVTISCSGGSSNVGRNGVNWFQHLPEKAPKLLIYYDAFLSSGVSDRFSGSKSGTSASLAIRGLQSDDEADYYCAAWDDSLYSWVFGGGTNLTVLGQPKAAPSVTLFPPSSEELQANKATLVCLISDFYPGAVTVAWKADSSPVKAGVETTTPSKQSNNKYAASSYLSLTPEQWKSHRSYSCQVTHEGSTVEKTVAPTECS
heavy: not shown
notes: kept as a molecule of its own; Roles inferred
As usually defined, the EC50 is the concentration at which the effect is half-maximal. A low value points to higher potency in that assay. For B1, in [1], a half-maximal effect (EC50) was put at 0.49 nM.

B2: IgG YU250-H10 variant VL N126K (antibody)
light: QSVLTQPPSVSGAPGQRVTISCSGGSSNVGRNGVNWFQHLPEKAPKLLIYYDAFLSSGVSDRFSGSKSGTSASLAIRGLQSDDEADYYCAAWDDSLYSWVFGGGTKLTVLGQPKAAPSVTLFPPSSEELQANKATLVCLISDFYPGAVTVAWKADSSPVKAGVETTTPSKQSNNKYAASSYLSLTPEQWKSHRSYSCQVTHEGSTVEKTVAPTECS
heavy: not shown
notes: Potential glycosylation site in VL deleted (N126K); Roles inferred; also called VL N1216K
B2 showed a half-maximal effective concentration (EC50) in test [1] of 0.53 nM.

B3: scDb YU250-H10 x huU3 (bispecific antibody)
chain: QVQLVQSGGGVVQPGGSLRLSCAASGFTFSSYGMHWVRQAPGKGLEWVAFIRYDGSNKYYADSVKGRFTISRDNSKNTLYLQMNSLRAEDTAVYYCAKDGNSGYDSMDYWGQGTLVTVSSGGGGSDIQMTQSPSSLSASVGDRVTITCRASQDIRNYLNWYQQKPGKAPKLLIYYTSRLHSGVPSRFSGSGSGTDFTFTISSLQPEDIATYYCQQGNTLPWTFGQGTKLEIKRGGGGSGGGGSGGGGSQVQLVQSGAEVKKPGSSVKVSCKASGGTFSGYTMNWVRQAPGQGLEWMGLINPYKGVSTYNGKFKDRVTITADKSTSTAYMELSSLRSEDTAVYYCARSGYYGDSDWYFDVWGQGTLVTVSSGGGGSQSVLTQPPSVSGAPGQRVTISCSGGSSNVGRNGVNWFQHLPEKAPKLLIYYDAFLSSGVSDRFSGSKSGTSASLAIRGLQSDDEADYYCAAWDDSLYSWVFGGGTNLTVLAAAGGSGGGGSGGGTGGGGSLHHHHHH
notes: Bivalent single-chain diabody; detected with an anti-His antibody; also called bispecific EGFRxCD3 scDb
B3: the results for the EC50 (in test [2]; in [4]; in the test with CD3 on Jurkat cells) were 1.68 nM, 1.02 nM and 7.56 nM, respectively. The “IC50 for cytotoxicity, FaDu + PBMCs (E:T 10:1)” value in test [3] was found to be 0.0181 nM. Also, the “IC50 for cytotoxicity, LIM1215 + PBMCs (E:T 10:1)” value in test [3] stood at 0.0602 nM.

B4: Fab-His MKU011-A7 (Fab, V domains shown)
VH: QVQLVQSGGGVVQPGGSLRLSCAASGFTFSSYGMHWVRQAPGKGLEWVAFIRYDGSNKYYADSVKGRFTISRDNSKNTLYLQMNSLRAEDTAVYYCAKDGNSGYDSMDYWGQGTLVTVSS
VL: QPVLTQSPSASGTPGQRVTISCSGVSSNIGRNYVYWYQQFPGTAPKLLIYATHQRPSGVPDRFSGSKSGTSASLAISGLRSEDEANYYCAAWDDGVTGWVFGGGTKLTVLG
notes: also called Fab MKU011-A7; His-tagged anti-EGFR Fab MKU011-A7
What is called Kd is a measure of binding affinity in units of concentration. Turning to B4, the Kd is < 10000 nM in test [5]; < 100 nM in [6]; < 10000 nM in test [7]; < 10000 nM in test [8]; < 10000 nM in test [9]. Also, in test [10], a half-maximal response (EC50) required 2.79 nM.

B5: IgG1 MKU011-A7 (antibody, V domains shown)
VH: QVQLVQSGGGVVQPGGSLRLSCAASGFTFSSYGMHWVRQAPGKGLEWVAFIRYDGSNKYYADSVKGRFTISRDNSKNTLYLQMNSLRAEDTAVYYCAKDGNSGYDSMDYWGQGTLVTVSS
VL: QPVLTQSPSASGTPGQRVTISCSGVSSNIGRNYVYWYQQFPGTAPKLLIYATHQRPSGVPDRFSGSKSGTSASLAISGLRSEDEANYYCAAWDDGVTGWVFGGGTKLTVLG
notes: Fully human IgG1; also called IgG MKU011-A7; IgG MKU-011-A07
With B5, the EC50 in test [11] was found to be 0.35 nM; in test [10], 0.32 nM; in [12] it was 0.81 nM; in [13], 0.19 nM.

B6: Fab-His YU250-A02 (Fab, V domains shown)
VH: QVQLQESGGGVVQPGGSLRLSCAASGFTFSSYGMHWVRQAPGKGLEWVAFIRYDGSNKYYADSVKGRFTISRDNSKNTLYLQMNSLRAEDTAVYYCAKDGNSGYDSMDYWGQGTLVTVSS
VL: QSVLTQPPSVSGAPGQRVTISCSGGSSNVGRNGVNWFQHLPEKAPKLLIYYDAFLSSGVSDRFSGSKSGTSASLAIRGLQSEDEADYYCASWDDSLTGWVFGGGTKLTVLG
notes: Roles inferred as for IgG YU250-A02; also called Fab YU250-A02
Regarding B6, the dissociation constant (Kd) in test [5] is < 10000 nM; in test [6], < 100 nM; in test [7] it was < 10000 nM; in [8], < 10000 nM; in [9], < 10000 nM.

B7: Fab-His YU250-H10 (Fab, V domains shown)
VH: QVQLVQSGGGVVQPGGSLRLSCAASGFTFSSYGMHWVRQAPGKGLEWVAFIRYDGSNKYYADSVKGRFTISRDNSKNTLYLQMNSLRAEDTAVYYCAKDGNSGYDSMDYWGQGTLVTVSS
VL: QSVLTQPPSVSGAPGQRVTISCSGGSSNVGRNGVNWFQHLPEKAPKLLIYYDAFLSSGVSDRFSGSKSGTSASLAIRGLQSDDEADYYCAAWDDSLYSWVFGGGTNLTVLG
notes: T0001 gives '6 and 8' and '9 and 11' for Fab-His YU250-H10; Roles inferred; also called Fab YU250-H10
Take B7: the Kd in [5] is < 10000 nM; in test [6], < 100 nM; in test [7], < 10000 nM; in test [8], < 10000 nM; in test [9], < 10000 nM. Also, in test [14], the “fold increased binding against Fab-His MKU011-A7” value worked out at 4.7 fold. The molecule also displayed an EC50 in test [10] of 0.59 nM.

B8: scDb-YU250-H10 x huU3-scFv-YU250-H10 (bispecific antibody)
chain: QVQLVQSGGGVVQPGGSLRLSCAASGFTFSSYGMHWVRQAPGKGLEWVAFIRYDGSNKYYADSVKGRFTISRDNSKNTLYLQMNSLRAEDTAVYYCAKDGNSGYDSMDYWGQGTLVTVSSGGGGSDIQMTQSPSSLSASVGDRVTITCRASQDIRNYLNWYQQKPGKAPKLLIYYTSRLHSGVPSRFSGSGSGTDFTFTISSLQPEDIATYYCQQGNTLPWTFGQGTKLEIKRGGGGSGGGGSGGGGSQVQLVQSGAEVKKPGSSVKVSCKASGGTFSGYTMNWVRQAPGQGLEWMGLINPYKGVSTYNGKFKDRVTITADKSTSTAYMELSSLRSEDTAVYYCARSGYYGDSDWYFDVWGQGTLVTVSSGGGGSQSVLTQPPSVSGAPGQRVTISCSGGSSNVGRNGVNWFQHLPEKAPKLLIYYDAFLSSGVSDRFSGSKSGTSASLAIRGLQSDDEADYYCAAWDDSLYSWVFGGGTNLTVLAAAGGSGGGGSGGGTQVQLVQSGGGVVQPGGSLRLSCAASGFTFSSYGMHWVRQAPGKGLEWVAFIRYDGSNKYYADSVKGRFTISRDNSKNTLYLQMNSLRAEDTAVYYCAKDGNSGYDSMDYWGQGTLVTVSSGGGGSGGGGSGGGGSQSVLTQPPSVSGAPGQRVTISCSGGSSNVGRNGVNWFQHLPEKAPKLLIYYDAFLSSGVSDRFSGSKSGTSASLAIRGLQSDDEADYYCAAWDDSLYSWVFGGGTNLTVLGSLHHHHHH
notes: Trivalent; detected with an anti-His antibody; also called scDb-scFv; bispecific trivalent EGFRxCD3 scDb-scFv
In the case of B8, the 50% effective concentration (EC50) is 0.74 nM in [2], 0.31 nM in [4] and > 10 nM in the test with CD3 on Jurkat cells. Also, the “IC50 for cytotoxicity, FaDu + PBMCs (E:T 10:1)” value in [3] was 0.0044 nM. Also, the “IC50 for cytotoxicity, LIM1215 + PBMCs (E:T 10:1)” value in test [3] was found to be 0.004 nM.
